For one test, the target named is T1, Cynomolgous TfR ECD (Cynomolgus).
T1 chain: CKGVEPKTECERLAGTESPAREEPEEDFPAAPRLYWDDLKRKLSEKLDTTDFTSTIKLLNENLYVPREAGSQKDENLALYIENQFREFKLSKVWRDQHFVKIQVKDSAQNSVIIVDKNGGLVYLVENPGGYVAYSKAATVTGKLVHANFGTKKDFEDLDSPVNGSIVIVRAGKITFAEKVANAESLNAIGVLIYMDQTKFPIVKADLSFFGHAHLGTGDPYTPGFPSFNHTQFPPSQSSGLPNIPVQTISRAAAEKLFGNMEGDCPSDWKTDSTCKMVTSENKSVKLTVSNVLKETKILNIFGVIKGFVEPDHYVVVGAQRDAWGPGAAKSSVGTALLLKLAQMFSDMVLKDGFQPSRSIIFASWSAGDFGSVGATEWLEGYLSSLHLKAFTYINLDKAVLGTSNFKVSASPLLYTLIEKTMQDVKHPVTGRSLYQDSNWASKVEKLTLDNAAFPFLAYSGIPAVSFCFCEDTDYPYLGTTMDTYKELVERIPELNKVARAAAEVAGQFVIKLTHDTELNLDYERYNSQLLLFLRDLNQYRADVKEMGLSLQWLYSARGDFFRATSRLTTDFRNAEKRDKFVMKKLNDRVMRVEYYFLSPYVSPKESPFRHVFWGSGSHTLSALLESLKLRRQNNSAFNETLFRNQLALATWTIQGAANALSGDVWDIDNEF
The test can be described thus: SPR, Biacore 8K, 37 C, TfR ECD immobilized on CM4 chip, TBP as analyte, 2-state binding model, n = 3. Here is the method:
(§1) Target human and Cynomolgous TfR ECDs were immobilized on a CM4 chip (Cytiva P/N 29104989) using standard NHS-EDC amine coupling. The TfR binding proteins were prepared at a final concentration of 0.3, 0.1, 0.033, 0.01, 0.0033, 0.001, 0.00033, 0.0001 μM respectively by dilution of stock solution into running buffer.
(§2) Binding analysis was performed in a multi-cycle kinetics manner. Each analysis cycle consists of (1) injection of the lowest to highest concentration proteins over all Fc at 50 μL/min for 140 seconds followed by return to buffer flow for 400 seconds to monitor dissociation phase; (2) regeneration of chip surfaces with injection of 3M magnesium chloride, for 30 seconds at 100 μL/min over all cells; and (3) equilibration of chip surfaces with a 50 μL (30-sec) injection of HBS-EP+. Data were processed using standard double-referencing and fit to a 2-state binding model using Biacore 8K Evaluation software, to determine the association rate (kₒₙ, M⁻¹s⁻¹ units), dissociation rate (koff, s⁻¹ units), and Rₘₐₓ (RU units). The equilibrium dissociation constant (KD) is calculated from the relationship KD=koff/kₒₙ, and is in molar units.

A further test concerns the target T2, human TfR ECD (human, UniProt P02786 89-760).
T2 construct: extracellular domain; also called human Transferrin Receptor 1 extracellular domain
The test is described as above. Here is the method: as §1, §2

B1: TBP4 (One Arm Heteromab 1, A378C) (antibody, human IgG4 S228P, kappa, F234A L235A)
heavy: EVQLVESGGGLVKPGGSLRLSCVASGFTFSSYSMNWVRQAPGKGLEWVSSISSSSSYIYYADSVKGRFTISRDNAKNSLYLQMNSLRAEDTAVYYCARRHGYSNSDAFDNWGQGTLVTVSSASTKGPSVFPLAPCSRSTSESTAALGCLVKDYFPEPVTVSWNSGALTSGVHTFPAVLQSSGLYSLSSVVTVPSSSLGTKTYTCNVDHKPSNTKVDKRVESKYGPPCPPCPAPEAAGGPSVFLFPPKPKDTLMISRTPEVTCVVVDVSQEDPEVQFNWYVDGVEVHNAKTKPREEQFNSTYRVVSVLTVLHQDWLNGKEYKCKVSNKGLPSSIEKTISKAKGQPREPQVSTLPPSQEEMTKNQVSLMCLVYGFYPSDICVEWESNGQPENNYKTTPPVLDSDGSFFLYSVLTVDKSRWQEGNVFSCSVMHEALHNHYTQKSLSLSLG
light: DIQMTQSPSAMSASVGDRVTITCRASQGISHYLVWFQQKPGKVPKRLIYAASSLQSGVPSRFSGSGSGTEFTLTISSLQPEDFATYYCLQHNSYPWTFGQGTKVEIKRTVAAPSVFIFPPSDEQLKSGTASVVCLLNNFYPREAKVQWKVDNALQSGNSQESVTEQDSKDSTYSLSSTLTLSKADYEKHKVYACEVTHQGLSSPVTKSFNRGEC
chain: ESKYGPPCPPCPAPEAAGGPSVFLFPPKPKDTLMISRTPEVTCVVVDVSQEDPEVQFNWYVDGVEVHNAKTKPREEQFNSTYRVVSVLTVLHQDWLNGKEYKCKVSNKGLPSSIEKTISKAKGQPREPQVYTLPPSQGDMTKNQVQLTCLVKGFYPSDICVEWESNGQPENNYKTTPPVLDSDGSFFLASRLTVDKSRWQEGNVFSCSVMHEALHNHYTQKSLSLSLG
notes: One-arm heteromab, IgG4 PAA, monovalent for human TfR; also called OAH1
Turning to B1, the Kd (commonly a measure of binding affinity in units of concentration) was determined as 300 nM with Cynomolgous TfR ECD and 154 nM with human TfR ECD.

The values above are taken from patent US20250064958A1 (Eli Lilly, published 2025).
